Data set [1] has as its system HeLa Kyoto. The data set is described as follows: solubility in G1/S (NP-40 vs SDS abundance) (log2 ratio); higher = more soluble. The settings on record: cell cycle stage: G1/S.
Data set [2] deals with HeLa Kyoto. The data set is described as follows: melting temperature (median over replicates), in situ; higher = more thermally stable.
Data set [3] relates to HeLa Kyoto. The data set is described as follows: solubility change mitosis vs G1/S (difference of NP-40 vs SDS log2 ratios) (log2 ratio difference); higher = more soluble in mitosis.
Data set [4] relates to HeLa Kyoto. Nature of the data set: thermal stability score vs G1/S (z-score of summed log2 fold changes over temperatures); higher = more thermally stable than in G1/S.
The mark [5] stands for this setting: cell cycle stage: early G1 (4.5 h after nocodazole release).
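Wherever melting temperature (median over replicates), in situ is given: HeLa Kyoto cells synchronized by double thymidine or nocodazole block, proteins quantified by TMT10plex mass spectrometry, three independent biological replicates.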
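Wherever solubility change mitosis vs G1/S (difference of NP-40 vs SDS log2 ratios) is given: synchronized HeLa Kyoto cells (double thymidine block for G1/S, nocodazole release for mitosis), protein amounts in NP-40 versus SDS lysates quantified by mass spectrometry, three biological replicates.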
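Wherever solubility in G1/S (NP-40 vs SDS abundance) is given: HeLa Kyoto cells arrested at G1/S by double thymidine block, proteins quantified by TMT10plex mass spectrometry in mild NP-40 versus SDS extracts, three biological replicates.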
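Wherever thermal stability score vs G1/S (z-score of summed log2 fold changes over temperatures) is given: synchronized HeLa Kyoto cells, proteins quantified by TMT10plex mass spectrometry, three biological replicates, mitosis taken 0.5 h after nocodazole release, G1/S directly after double thymidine block.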

Consider “MKCVFVTVGTTSFDDLIACVSAPDSLQKIESLGYNRLILQIGRGTVVPEPFSTESFTLDVYRYKDSLKEDIQKADLVISHAGAGSCLETLEKGKPLVVVINEKLMNNHQLELAKQLHKEGHLFYCTCRVLTCPGQAKSIASAPGKCQDSAALTSTAFSGLDFGLLSGYLHKQALVTATHPTCTLLFPSCHAFFPLPLTPTLYKMHKGWKNYCSQKSLNEASMDEYLGSLGLFRKLTAKDASCLFRAISEQLFCSQVHHLEIRKACVSYMRENQQTFESYVEGSFEKYLERLGDPKESAGQLEIRALSLIYNRDFILYRFPGKPPTYVTDNGYEDKILLCYSSSGHYDSVYSKQFQSSAAVCQAVLYEILYKDVFVVDEEELKTAIKLFRSGSKKNRNNAVTGSEDAHTDYKSSNQNRMEEWGACYNAENIPEGYNKGTEETKSPENPSKMPFPYKVLKALDPEIYRNVEFDVWLDSRKELQKSDYMEYAGRQYYLGDKCQVCLESEGRYYNAHIQEVGNENNSVTVFIEELAEKHVVPLANLKPVTQVMSVPAWNAMPSRKGRGYQKMPGGYVPEIVISEMDIKQQKKMFKKIRGKEVYMTMAYGKGDPLLPPRLQHSMHYGHDPPMHYSQTAGNVMSNEHFHPQHPSPRQGRGYGMPRNSSRFINRHNMPGPKVDFYPGPGKRCCQSYDNFSYRSRSFRRSHRQMSCVNKESQYGFTPGNGQMPRGLEETITFYEVEEGDETAYPTLPNHGGPSTMVPATSGYCVGRRGHSSGKQTLNLEEGNGQSENGRYHEEYLYRAEPDYETSGVYSTTASTANLSLQDRKSCSMSPQDTVTSYNYPQKMMGNIAAVAASCANNVPAPVLSNGAAANQAISTTSVSSQNAIQPLFVSPPTHGRPVIASPSYPCHSAIPHAGASLPPPPPPPPPPPPPPPPPPPPPPPPPPPALDVGETSNLQPPPPLPPPPYSCDPSGSDLPQDTKVLQYYFNLGLQCYYHSYWHSMVYVPQMQQQLHVENYPVYTEPPLVDQTVPQCYSEVRREDGIQAEASANDTFPNADSSSVPHGAVYYPVMSDPYGQPPLPGFDSCLPVVPDYSCVPPWHPVGTAYGGSSQIHGAINPGPIGCIAPSPPASHYVPQGM [ALG13]”, for which the “solubility in G1/S (log2)” value in the data set on HeLa Kyoto [1] was 0.392. Besides, the figures for the melting temperature in the data set on HeLa Kyoto [2] (cell cycle stage: G1/S) and with HeLa Kyoto [2] (cell cycle stage: mitosis) were 53.4 °C and 52.2 °C, respectively. For the same sequence, the “solubility change mitosis (log2)” value in the data set on HeLa Kyoto [3] was 0.0555. Besides, the figures for the thermal stability score in the data set on HeLa Kyoto [4] (setting [5]) and with HeLa Kyoto [4] (cell cycle stage: mitosis) were 2.01 and -0.34, respectively.
For the sequence “MKDVPGFLQQSQNSGPGQPAVWHRLEELYTKKLWHQLTLQVLDFVQDPCFAQGDGLIKLYENFISEFEHRVNPLSLVEIILHVVRQMTDPNVALTFLEKTREKVKSSDEAVILCKTAIGALKLNIGDLQVTKETIEDVEEMLNNLPGVTSVHSRFYDLSSKYYQTIGNHASYYKDALRFLGCVDIKDLPVSEQQERAFTLGLAGLLGEGVFNFGELLMHPVLESLRNTDRQWLIDTLYAFNSGNVERFQTLKTAWGQQPDLAANEAQLLRKIQLLCLMEMTFTRPANHRQLTFEEIAKSAKITVNEVELLVMKALSVGLVKGSIDEVDKRVHMTWVQPRVLDLQQIKGMKDRLEFWCTDVKSMEMLVEHQAHDILT [PSMD13]”, the “solubility in G1/S (log2)” value in the data set on HeLa Kyoto [1] stood at 0.0175. Also, the melting temperature with HeLa Kyoto [2] (cell cycle stage: G1/S) worked out at 53.2 °C; in the data set on HeLa Kyoto [2] (cell cycle stage: mitosis) it was 51.3 °C. The “solubility change mitosis (log2)” value with HeLa Kyoto [3] is -0.181. In addition, the thermal stability score in the data set with HeLa Kyoto [4] (setting [5]) stood at 1.44; with HeLa Kyoto [4] (cell cycle stage: mitosis), 2.56.
“MKEEKEHRPKEKRVTLLTPAGATGSGGGTSGDSSKGEDKQDRNKEKKEALSKVVIRRLPPTLTKEQLQEHLQPMPEHDYFEFFSNDTSLYPHMYARAYINFKNQEDIILFRDRFDGYVFLDNKGQEYPAIVEFAPFQKAAKKKTKKRDTKVGTIDDDPEYRKFLESYATDNEKMTSTPETLLEEIEAKNRELIAKKTTPLLSFLKNKQRMREEKREERRRREIERKRQREEERRKWKEEEKRKRKDIEKLKKIDRIPERDKLKDEPKIKVHRFLLQAVNQKNLLKKPEKGDEKELDKREKAKKLDKENLSDERASGQSCTLPKRSDSELKDEKPKRPEDESGRDYREREREYERDQERILRERERLKRQEEERRRQKERYEKEKTFKRKEEEMKKEKDTLRDKGKKAESTESIGSSEKTEKKEEVVKRDRIRNKDRPAMQLYQPGARSRNRLCPPDDSTKSGDSAAERKQESGISHRKEGGEE [UPF3B]”: the “solubility in G1/S (log2)” value in the data set with HeLa Kyoto [1] is -0.279. Moreover, the melting temperature in the data set on HeLa Kyoto [2] (cell cycle stage: G1/S) was 50.6 °C; in the data set on HeLa Kyoto [2] (cell cycle stage: mitosis) it was 50.5 °C. In addition, the “solubility change mitosis (log2)” value with HeLa Kyoto [3] amounted to 0.245. Besides, the thermal stability score is 0.0687 in the data set on HeLa Kyoto [4] (setting [5]) and -0.398 in the data set on HeLa Kyoto [4] (cell cycle stage: mitosis).

The values are drawn from the supplement of paper PMC5998384.
